“Also recorded” adds a separate entry of the source.

The test system of one experiment is PSC27 fibroblasts. Put plainly: Induction of DDSP factors in PSC27 fibroblasts with mTOR inhibition before ionizing radiation. It counts as cell-based, human. Particulars: summary statement. On the procedure:
The effects of inhibiting mTOR signaling in the context of genotoxic stress was evaluated. PSC27 fibroblasts were treated with Rapamycin (RAPA) prior to ionizing radiation.

The next experiment deals with PC#/PSC27 cells. Kind of experiment: Subcutaneous grafts of PC#/PSC27 cells treated with systemic RAPA and MIT. It counts as in vivo. Particulars: RAPA used with MIT.
Experiment [1] concerns epithelial CaP cells. Put plainly: Proliferation of epithelial CaP cells on GDNF stimulation. It counts as cell-based, human. On the procedure:
(§1) To study the effect GDNF has on tumor growth, we have used two experimental approaches have been used. 1) the effect of purified GDNF on cell proliferation of epithelial cells was analyzed and 2) GDNF over-expressing and secreting human prostate fibroblasts were generated which can also be used in co-culture and in vivo experiments. […] GDNF can act in the absence of RET via GFRA1 activating SFK pathways or through the activation of the RET/GFRA1 complex activating the Ras/Raf/Erk pathway. In our experiments we determined that both pathways were activated in GDNF sensitive cell lines (FIG. 23B). […] The number of epithelial cell lines are being expanded and analyzed after GDNF stimulation. GDNF-activated SFK and Erk pathways can lead to reduced sensitivity to pro-apoptotic treatments or decrease drug sensitivity.

Experiment [2] deals with epithelial CaP cells. Put plainly: Src/SFK and Erk pathway activation in CaP cells on GDNF stimulation. The note with it: GDNF responsive cells. It counts as cell-based, human. On the procedure: as §1
Another experiment relates to PSC27 stromal cells. Put plainly: SFK and Ras/Raf/Erk pathway activation in PSC27 stromal cells on GDNF stimulation. It counts as cell-based, human. The text has this:
Stimulation of epithelial CaP cells with GDNF leads to the activation of the SFK and the Ras/Raf/Erk pathways (FIG. 25). To determine if the same pathways are involved in the pro-proliferative effect on the PSC27 stromal cells, PSC27 cells were stimulated with hrGDNF or conditioned medium from PSC27/iGDNF-V5 cells. […] Additional more downstream effector proteins potentially involved in these effects are also being examined.

As for `CO[C@H]1C[C@@H]2CC[C@@H](C)[C@@](O)(O2)C(=O)C(=O)N2CCCC[C@H]2C(=O)O[C@H]([C@H](C)C[C@@H]2CC[C@@H](OCCO)[C@H](OC)C2)CC(=O)[C@H](C)/C=C(\C)[C@@H](O)[C@@H](OC)C(=O)[C@H](C)C[C@H](C)/C=C/C=C/C=C/1C` [RAD001], the “suppression of key DDSP proteins including Wnt16B” value in the experiment on PSC27 fibroblasts is recorded as “effectively suppress”.
`CO[C@H]1C[C@@H]2CC[C@@H](C)[C@@](O)(O2)C(=O)C(=O)N2CCCC[C@H]2C(=O)O[C@H]([C@H](C)C[C@@H]2CC[C@@H](O)[C@H](OC)C2)CC(=O)[C@H](C)/C=C(\C)[C@@H](O)[C@@H](OC)C(=O)[C@H](C)C[C@H](C)/C=C/C=C/C=C/1C` [RAPA, Rapamycin]: in the experiment with PC#/PSC27 cells, the “reduction in tumor volumes” value is recorded as “approximately 60%”.

B1: GDNF: glial cell line-derived neurotrophic factor, purified / human recombinant protein used to stimulate cells (protein)
chain: SPDKQMAVLPRRERNRQAAAANPENSRGKGRRGQRGKNRGCVLTAIHLNVTDLGLGYETKEELIFRYCSGSCDAAETTYDKILKNLSRNRRLVSDKVGQACCRPIAFDDDLSFLDDNLVYHILRKHSAKRCGCI
As to B1, the “proliferation of Ret and GFRA1 negative cells” value in the experiment with epithelial CaP cells [1] (after 3 or 5 days) is recorded as “did not show any increase in proliferation; also recorded: do not show any differences in proliferation”. Moreover, the “GDNF concentration of maximum stimulation of proliferation” value with epithelial CaP cells [1] (in the culture medium) was “around 10 ng/ml”. Besides, the “proliferation of cells expressing GDNF receptors Ret and/or GFRA1” value in the experiment on epithelial CaP cells [1] (increasing concentrations of GDNF) is listed as “induced cell proliferation; also recorded: increased proliferation”. In addition, the “Src (SFK) and Erk (Ras/Raf/Erk) pathways” value in the experiment with epithelial CaP cells [2] is given as “activated; also recorded: activation”. Moreover, the “Ras/Raf/Erk and SFK pathways in stromal cells” value with PSC27 stromal cells is reported as “stimulated; also recorded: activation”.

The values are drawn from patent US9759725B2, “Treatment-induced damage to the tumor micro-environment promotes cancer therapy resistance through extracellular proteins” (Fred Hutchinson Cancer Research Center, priority 2012, dated 2017).
